Experimental data taken from the supplement of paper PMC9112550, “Optimization of the antimicrobial peptide Bac7 by deep mutational scanning” (BMC Biology, 2022).

Test system: Escherichia coli TOP10
Experiment: shrunken log2 fold change of peptide-encoding DNA abundance (4.5 h post-induction vs induction); higher = less antimicrobial activity (less host growth inhibition)
Settings: time post-induction: 4.5 h; library: site-saturation at positions 5, 18, 19, 20
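Note: peptides expressed intracellularly from a pBAD plasmid library in pooled LB shake-flask culture, induced with 0.3% L-arabinose, DNA abundance read by NGS, three biological replicates, DESeq2 with apeglm shrinkage.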

RRIRLRPPRLPRPRPRPHKPPRP was tested. Which “shrunken log2 fold change” value did it give?
Its value is 0.119.

Which “shrunken log2 fold change” value does the source give for RRIRMRPPRLPRPRPRPHKDPRP here?
Its value is -0.0811.

RRIRDRPPRLPRPRPRPECNPRP was tested. Which “shrunken log2 fold change” value did it give?
Its value is 0.741.

RRIRPRPPRLPRPRPRPGFLPRP was tested. Which “shrunken log2 fold change” value did it give?
Its value is 0.167.

With RRIRSRPPRLPRPRPRPFDKPRP as the sequence, how does the “shrunken log2 fold change” value read?
Its value is -0.232.

How did the “shrunken log2 fold change” value turn out when RRIRNRPPRLPRPRPRPMDYPRP was run?
The value was 0.0678.

With RRIRMRPPRLPRPRPRPPSQPRP as the sequence, how does the “shrunken log2 fold change” value read?
Its value is 1.18.

How did the “shrunken log2 fold change” value turn out when RRIRHRPPRLPRPRPRPGYCPRP was run?
Its value is -0.507.

RRIRCRPPRLPRPRPRPYVCPRP was tested. Which “shrunken log2 fold change” value did it give?
Its value is -0.11.

Which “shrunken log2 fold change” value does the source give for RRIRARPPRLPRPRPRPFRLPRP here?
Its value is 0.114.

With RRIRVRPPRLPRPRPRPPYYPRP as the sequence, how does the “shrunken log2 fold change” value read?
Its value is -0.363.

Which “shrunken log2 fold change” value does the source give for RRIRLRPPRLPRPRPRPLGNPRP here?
The value was 0.102.

RRIRDRPPRLPRPRPRPVYAPRP was tested. Which “shrunken log2 fold change” value did it give?
The value was -0.025.

With RRIRMRPPRLPRPRPRPKKLPRP as the sequence, how does the “shrunken log2 fold change” value read?
Its value is 0.354.

RRIRKRPPRLPRPRPRPKDPPRP was tested. Which “shrunken log2 fold change” value did it give?
Its value is 0.367.

With RRIRHRPPRLPRPRPRPTQGPRP as the sequence, how does the “shrunken log2 fold change” value read?
Its value is 0.318.

How did the “shrunken log2 fold change” value turn out when RRIRKRPPRLPRPRPRPGKIPRP was run?
The value was 0.494.

How did the “shrunken log2 fold change” value turn out when RRIRLRPPRLPRPRPRPWYKPRP was run?
The value was -0.0396.

Which “shrunken log2 fold change” value does the source give for RRIRPRPPRLPRPRPRPDKYPRP here?
The value was -0.743.

With RRIRNRPPRLPRPRPRPGCGPRP as the sequence, how does the “shrunken log2 fold change” value read?
The value was 0.451.

With RRIRIRPPRLPRPRPRPLKAPRP as the sequence, how does the “shrunken log2 fold change” value read?
The value was -0.02.

For RRIRDRPPRLPRPRPRPISFPRP, which “shrunken log2 fold change” value is on record?
Its value is -0.0563.

Which “shrunken log2 fold change” value does the source give for RRIRDRPPRLPRPRPRPGLQPRP here?
The value was 0.56.

How did the “shrunken log2 fold change” value turn out when RRIRPRPPRLPRPRPRPRDYPRP was run?
The value was 0.144.

Which “shrunken log2 fold change” value does the source give for RRIRIRPPRLPRPRPRPGEVPRP here?
Its value is 0.0961.

RRIRERPPRLPRPRPRPQCYPRP was tested. Which “shrunken log2 fold change” value did it give?
Its value is -0.186.

With RRIRERPPRLPRPRPRPGFHPRP as the sequence, how does the “shrunken log2 fold change” value read?
The value was -0.277.

Which “shrunken log2 fold change” value does the source give for RRIRFRPPRLPRPRPRPERGPRP here?
The value was 0.0525.

RRIRWRPPRLPRPRPRPDSGPRP was tested. Which “shrunken log2 fold change” value did it give?
Its value is -0.0735.

Which “shrunken log2 fold change” value does the source give for RRIRKRPPRLPRPRPRPKMDPRP here?
The value was 0.158.

For RRIRWRPPRLPRPRPRPWEVPRP, which “shrunken log2 fold change” value is on record?
The value was -0.0113.

With RRIRPRPPRLPRPRPRPGMKPRP as the sequence, how does the “shrunken log2 fold change” value read?
The value was -0.257.

With RRIRNRPPRLPRPRPRPAKNPRP as the sequence, how does the “shrunken log2 fold change” value read?
Its value is 0.0221.

For RRIRMRPPRLPRPRPRPEEFPRP, which “shrunken log2 fold change” value is on record?
The value was 0.0141.

How did the “shrunken log2 fold change” value turn out when RRIRHRPPRLPRPRPRPPTDPRP was run?
Its value is -0.254.

RRIRTRPPRLPRPRPRPKRAPRP was tested. Which “shrunken log2 fold change” value did it give?
The value was 0.273.

For RRIRDRPPRLPRPRPRPLDIPRP, which “shrunken log2 fold change” value is on record?
Its value is 0.0227.

Which “shrunken log2 fold change” value does the source give for RRIRTRPPRLPRPRPRPPKDPRP here?
Its value is -0.187.

How did the “shrunken log2 fold change” value turn out when RRIRWRPPRLPRPRPRPDWFPRP was run?
The value was 0.147.

With RRIRDRPPRLPRPRPRPTMKPRP as the sequence, how does the “shrunken log2 fold change” value read?
The value was 0.192.

RRIRIRPPRLPRPRPRPSVPPRP was tested. Which “shrunken log2 fold change” value did it give?
Its value is -0.835.

How did the “shrunken log2 fold change” value turn out when RRIRRRPPRLPRPRPRPNVMPRP was run?
The value was -0.149.

Which “shrunken log2 fold change” value does the source give for RRIRGRPPRLPRPRPRPNQEPRP here?
Its value is 0.389.

RRIRSRPPRLPRPRPRPRDRPRP was tested. Which “shrunken log2 fold change” value did it give?
The value was 0.271.

Which “shrunken log2 fold change” value does the source give for RRIRARPPRLPRPRPRPIRHPRP here?
Its value is -0.0279.

RRIRARPPRLPRPRPRPTCCPRP was tested. Which “shrunken log2 fold change” value did it give?
The value was 0.653.

With RRIRTRPPRLPRPRPRPSFRPRP as the sequence, how does the “shrunken log2 fold change” value read?
Its value is -1.02.

With RRIRARPPRLPRPRPRPTFFPRP as the sequence, how does the “shrunken log2 fold change” value read?
Its value is 0.197.

For RRIRHRPPRLPRPRPRPAKMPRP, which “shrunken log2 fold change” value is on record?
Its value is 0.0344.

For RRIRFRPPRLPRPRPRPWNMPRP, which “shrunken log2 fold change” value is on record?
The value was -0.24.

How did the “shrunken log2 fold change” value turn out when RRIRGRPPRLPRPRPRPLLWPRP was run?
The value was 0.896.

With RRIRARPPRLPRPRPRPITDPRP as the sequence, how does the “shrunken log2 fold change” value read?
Its value is -0.0703.

How did the “shrunken log2 fold change” value turn out when RRIRHRPPRLPRPRPRPMFHPRP was run?
The value was -0.509.

RRIRMRPPRLPRPRPRPMQSPRP was tested. Which “shrunken log2 fold change” value did it give?
The value was 0.886.

RRIRQRPPRLPRPRPRPHPWPRP was tested. Which “shrunken log2 fold change” value did it give?
The value was 0.0242.

Which “shrunken log2 fold change” value does the source give for RRIRPRPPRLPRPRPRPCRAPRP here?
The value was 0.0858.

For RRIRNRPPRLPRPRPRPHPMPRP, which “shrunken log2 fold change” value is on record?
The value was 0.0281.

With RRIRYRPPRLPRPRPRPPGYPRP as the sequence, how does the “shrunken log2 fold change” value read?
The value was 1.43.

With RRIRGRPPRLPRPRPRPKRMPRP as the sequence, how does the “shrunken log2 fold change” value read?
Its value is 0.675.

RRIRNRPPRLPRPRPRPALYPRP was tested. Which “shrunken log2 fold change” value did it give?
Its value is -0.125.

Which “shrunken log2 fold change” value does the source give for RRIRKRPPRLPRPRPRPCNYPRP here?
The value was -0.0312.

RRIRMRPPRLPRPRPRPWHHPRP was tested. Which “shrunken log2 fold change” value did it give?
Its value is -0.0514.

With RRIRERPPRLPRPRPRPLYPPRP as the sequence, how does the “shrunken log2 fold change” value read?
The value was -0.458.

RRIRDRPPRLPRPRPRPCTFPRP was tested. Which “shrunken log2 fold change” value did it give?
The value was -0.0767.

RRIRDRPPRLPRPRPRPPDNPRP was tested. Which “shrunken log2 fold change” value did it give?
Its value is -0.272.

RRIRRRPPRLPRPRPRPMSHPRP was tested. Which “shrunken log2 fold change” value did it give?
The value was 0.142.

With RRIRMRPPRLPRPRPRPMAQPRP as the sequence, how does the “shrunken log2 fold change” value read?
The value was -0.0018.

For RRIRKRPPRLPRPRPRPPHVPRP, which “shrunken log2 fold change” value is on record?
Its value is 0.498.

For RRIRFRPPRLPRPRPRPWLNPRP, which “shrunken log2 fold change” value is on record?
The value was -0.189.

RRIRFRPPRLPRPRPRPWSYPRP was tested. Which “shrunken log2 fold change” value did it give?
The value was -0.48.

How did the “shrunken log2 fold change” value turn out when RRIRSRPPRLPRPRPRPGGTPRP was run?
Its value is 0.247.

With RRIRFRPPRLPRPRPRPAYRPRP as the sequence, how does the “shrunken log2 fold change” value read?
The value was -0.0676.

Which “shrunken log2 fold change” value does the source give for RRIRFRPPRLPRPRPRPVECPRP here?
The value was -0.17.

Which “shrunken log2 fold change” value does the source give for RRIRHRPPRLPRPRPRPWQVPRP here?
The value was -0.0402.

Which “shrunken log2 fold change” value does the source give for RRIRYRPPRLPRPRPRPDREPRP here?
The value was -0.15.

How did the “shrunken log2 fold change” value turn out when RRIRCRPPRLPRPRPRPCPAPRP was run?
The value was -0.178.

With RRIRLRPPRLPRPRPRPPEAPRP as the sequence, how does the “shrunken log2 fold change” value read?
Its value is 0.255.

With RRIRARPPRLPRPRPRPMWEPRP as the sequence, how does the “shrunken log2 fold change” value read?
Its value is -0.000921.

For RRIRHRPPRLPRPRPRPKGMPRP, which “shrunken log2 fold change” value is on record?
The value was -0.448.

How did the “shrunken log2 fold change” value turn out when RRIRPRPPRLPRPRPRPNYFPRP was run?
The value was -0.435.

Which “shrunken log2 fold change” value does the source give for RRIRGRPPRLPRPRPRPAPVPRP here?
The value was 0.925.

For RRIRCRPPRLPRPRPRPAVGPRP, which “shrunken log2 fold change” value is on record?
Its value is 0.155.

Which “shrunken log2 fold change” value does the source give for RRIRQRPPRLPRPRPRPRKLPRP here?
The value was 0.0501.

How did the “shrunken log2 fold change” value turn out when RRIRFRPPRLPRPRPRPVYTPRP was run?
Its value is -1.09.

RRIRARPPRLPRPRPRPMQIPRP was tested. Which “shrunken log2 fold change” value did it give?
Its value is 0.446.

Which “shrunken log2 fold change” value does the source give for RRIRMRPPRLPRPRPRPDWKPRP here?
Its value is 0.0125.

Which “shrunken log2 fold change” value does the source give for RRIRNRPPRLPRPRPRPMFAPRP here?
Its value is -0.239.

RRIRWRPPRLPRPRPRPDQCPRP was tested. Which “shrunken log2 fold change” value did it give?
Its value is 0.25.

How did the “shrunken log2 fold change” value turn out when RRIRTRPPRLPRPRPRPHFAPRP was run?
The value was -0.227.

Which “shrunken log2 fold change” value does the source give for RRIRHRPPRLPRPRPRPVVRPRP here?
The value was 0.112.

Which “shrunken log2 fold change” value does the source give for RRIRVRPPRLPRPRPRPIMCPRP here?
The value was 0.0128.

Which “shrunken log2 fold change” value does the source give for RRIRERPPRLPRPRPRPLTWPRP here?
The value was 3.04.

RRIRGRPPRLPRPRPRPCFWPRP was tested. Which “shrunken log2 fold change” value did it give?
The value was 0.67.

With RRIRSRPPRLPRPRPRPNPVPRP as the sequence, how does the “shrunken log2 fold change” value read?
The value was -0.0484.

How did the “shrunken log2 fold change” value turn out when RRIRARPPRLPRPRPRPHANPRP was run?
Its value is -0.0153.

How did the “shrunken log2 fold change” value turn out when RRIRVRPPRLPRPRPRPYFWPRP was run?
The value was -0.395.

How did the “shrunken log2 fold change” value turn out when RRIRHRPPRLPRPRPRPPEVPRP was run?
Its value is 0.0634.

RRIRARPPRLPRPRPRPMPMPRP was tested. Which “shrunken log2 fold change” value did it give?
The value was 0.695.

Which “shrunken log2 fold change” value does the source give for RRIRLRPPRLPRPRPRPKMCPRP here?
The value was -0.0794.

RRIRTRPPRLPRPRPRPPVDPRP was tested. Which “shrunken log2 fold change” value did it give?
Its value is 0.244.

Which “shrunken log2 fold change” value does the source give for RRIRCRPPRLPRPRPRPAMCPRP here?
The value was -0.144.

RRIRYRPPRLPRPRPRPVFNPRP was tested. Which “shrunken log2 fold change” value did it give?
Its value is -1.32.

With RRIRCRPPRLPRPRPRPYFEPRP as the sequence, how does the “shrunken log2 fold change” value read?
The value was -0.572.

With RRIRIRPPRLPRPRPRPGSEPRP as the sequence, how does the “shrunken log2 fold change” value read?
Its value is -0.187.

Which “shrunken log2 fold change” value does the source give for RRIRMRPPRLPRPRPRPKRHPRP here?
Its value is 0.351.

How did the “shrunken log2 fold change” value turn out when RRIRIRPPRLPRPRPRPHVKPRP was run?
The value was -0.213.

How did the “shrunken log2 fold change” value turn out when RRIRHRPPRLPRPRPRPSDIPRP was run?
Its value is -0.978.

How did the “shrunken log2 fold change” value turn out when RRIRLRPPRLPRPRPRPYYCPRP was run?
The value was -0.223.

With RRIRIRPPRLPRPRPRPTHHPRP as the sequence, how does the “shrunken log2 fold change” value read?
The value was 0.155.
